Entries after “also recorded” stand apart in the source; their conditions may differ.
B1: G2.65 mouse: anti-ABCG2 antibody raised in mouse, listed in Table 2 (antibody, V domains shown)
VH: QGQMHQSGAELVKPGASVKLSCKTSGFTFNSGYISWLKQKPRQSLEWIAWIYAGTGISNFNQKFTGKAQLTVDTSSSTAYMQLSSLTSADSAIYFCASGARKTLDFWGQGTSVTVSS
VL: DIQMTQSSSYLSVSVGGRVTITCKASDQINYWLAWYQQKPGNAPRLLISGATSLETGVPSRFSGSGSGKDYTLSITSFQTEDVATYYCQQYWTTPYTFGGGTKVEIK
B2: G2.302 mouse: anti-ABCG2 antibody raised in mouse, listed in Table 2 (antibody, V domains shown)
VH: QIQLQQSGPELVRPGASVKISCKASGYTFTDYYINWVKQRPGQGLEWIGWIYPGNVNVKYNEKFKGKATLTVDTSSSTGYMQLRSLTSEDSAVYFCARSIGLRYFDNWGQGTTLTVSS
VL: EKVLTQSPAIMSASLGEKVTMSCRASSSVHYMYWHQQKSDASPRLWIYYTSNLAPGVPARFSGSGSGNFYSLTISSVEDEDGATYYCQQFTTSTWTFGGGTKLEIK
B3: G2.636 rat: anti-ABCG2 antibody raised in rat (antibody, V domains shown)
VH: EVKLVESGGGLVQPGRSLKLSCAASGFTFSRFYMAWVRQAPTKGLEWVAHISHGGDTTYYRDSVKGRFTISRDNAKSTLFLQMDSLRSEDTATYYCTTSAAPWNYVMDGWGLGASVTVSS
VL: DIVMTQSPSLLSASVGDRVTLTCKGSQNINNFLAWYQQKLGEAPKLLIYKTNSLHTGIPSRFSGSGSGTDYTLTISSLHSEDLATYYCYQYNNGYTFGAGTKLELK
B4: G2.631 rat: anti-ABCG2 antibody raised in rat (antibody, V domains shown)
VH: EVKLLESGGGLVQSGRSLKLSCAASGFIFSRFYMAWVRQAPRKGLEWVAYISNGAGSTYYRESVKGRFIISRDNAKSTLYLQMDSLRSEDTATYYCTTVAAPWNYVMDGWGQGASVTVSS
VL: NIQITQSPSLLSASVGDRVTLSCKGSQNINNYLAWYQQKLGEAPKLLIYKTNSLHTGIPSRFSGSGSGTDYTLTISSLHSEDLATYYCYQYNNGYTFGAGTKLELK
B5: G2.333 rat: anti-ABCG2 antibody raised in rat (antibody, V domains shown)
VH: EIQLQESGPGLVKPSQSLSLTCSVTGYTITSGYDWTWLRKFPGNKMEWMGYISYSGFTNYNPSLRSRISISRDTSKNQFFLQLNSVTTEDTATYYCARTRGYNPFPYWGQGTLVTVSS
VL: DIQMTQSPSLLSASVGDRVSLSCKAGRNVNNYLAWYQQKLGKPPKLLIYNSNSLQTGIPSRFSGSGSGTDFTLTISSLQPEDVATYFCQQYNSWTTFGSGTKLEIK
B6: G2.343 rat: anti-ABCG2 antibody raised in rat (antibody, V domains shown)
VH: SVQLKESGPGLVQPSQTLSLTCTVSGFSLTSNGVSWVRQPPGKGLEWIAAISSGGSTYYNSVLKSRLSISRDTSKSQVFLKMNSLQTEDTAIYFCTRDTYYGYNQIPFVYWGQGTLVTVSS
VL: DVVLAQTPPTLSATIGQSVSISCRSSQSLLHSSGNTYLNWLLQRPGQPPQLLIYLVSRLESRVPNRFSGSGSGTDFTLKISGVEAEDLGVYYCVQSTHAPRTFGGGTKLELK

Legend:
[1] = biological target: T1, ABCG2 (Homo sapiens, UniProt Q9UNQ0); type: cell-based
T1 construct: expressed in transfected cells
T1 sequence (Q9UNQ0 1-655): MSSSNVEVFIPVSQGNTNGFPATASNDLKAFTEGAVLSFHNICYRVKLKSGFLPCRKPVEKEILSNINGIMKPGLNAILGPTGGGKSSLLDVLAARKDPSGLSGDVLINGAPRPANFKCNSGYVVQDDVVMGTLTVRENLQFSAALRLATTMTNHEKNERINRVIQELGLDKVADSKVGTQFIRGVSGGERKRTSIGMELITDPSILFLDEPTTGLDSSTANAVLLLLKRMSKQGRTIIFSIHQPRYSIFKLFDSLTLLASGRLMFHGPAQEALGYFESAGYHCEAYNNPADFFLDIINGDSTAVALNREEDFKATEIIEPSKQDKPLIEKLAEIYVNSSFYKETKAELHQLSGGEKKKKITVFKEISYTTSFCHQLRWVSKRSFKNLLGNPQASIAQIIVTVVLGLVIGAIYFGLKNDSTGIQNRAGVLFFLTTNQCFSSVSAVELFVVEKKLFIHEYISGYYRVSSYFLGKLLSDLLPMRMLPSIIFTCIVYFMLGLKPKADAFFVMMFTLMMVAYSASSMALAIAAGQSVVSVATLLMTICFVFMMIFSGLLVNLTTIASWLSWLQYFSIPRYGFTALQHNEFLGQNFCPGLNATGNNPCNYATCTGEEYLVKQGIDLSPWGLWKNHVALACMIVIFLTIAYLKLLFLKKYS
Method in brief: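 293T cells overexpressing ABCG2 (2×10e6 cells/ml, phenol red-free DMEM) treated with antibodies or inhibitors at 1 μM final, then loaded with 2.5 μM mitoxantrone 1 h at 37° C. After washing, mitoxantrone retention read as fluorescence (ex 635, em 647 nm) to measure efflux blockade.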

[2] = test system: cynomolgus ABCG2; assay: Flow cytometry binding to 293T cells overexpressing cynomolgus ABCG2; design: key to Cynomolgus ABCG2 binding: binding=“+”; non-significant binding=“−”; conditions: for binding to 293 cells overexpressing cynomolgus ABCG2 (cG2): FACS, FIG. 1; for binding to 293T cells overexpressing cynomolgus ABCG2: in words, FIGS. 7-11, 21
Sequence of cynomolgus ABCG2 (as listed by the source): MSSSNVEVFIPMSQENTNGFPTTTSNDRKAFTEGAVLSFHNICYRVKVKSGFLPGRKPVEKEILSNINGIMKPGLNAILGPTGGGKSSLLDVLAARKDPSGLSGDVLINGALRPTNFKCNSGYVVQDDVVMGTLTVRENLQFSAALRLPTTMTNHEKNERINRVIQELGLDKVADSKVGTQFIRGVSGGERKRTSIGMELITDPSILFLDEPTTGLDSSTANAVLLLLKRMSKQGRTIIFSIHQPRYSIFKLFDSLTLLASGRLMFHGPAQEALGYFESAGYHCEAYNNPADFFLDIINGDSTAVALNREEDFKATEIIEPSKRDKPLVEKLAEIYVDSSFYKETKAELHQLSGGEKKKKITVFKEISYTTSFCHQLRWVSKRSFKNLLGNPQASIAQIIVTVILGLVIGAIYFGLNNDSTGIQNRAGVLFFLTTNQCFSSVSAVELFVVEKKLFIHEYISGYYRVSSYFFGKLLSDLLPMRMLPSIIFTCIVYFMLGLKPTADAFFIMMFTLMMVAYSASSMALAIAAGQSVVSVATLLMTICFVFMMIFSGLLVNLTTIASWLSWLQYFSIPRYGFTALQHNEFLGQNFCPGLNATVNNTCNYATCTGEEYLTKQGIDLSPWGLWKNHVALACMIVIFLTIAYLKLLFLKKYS
Method in brief: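 293T cells stably overexpressing cynomolgus ABCG2 were incubated on ice for 30 min with antibody at 5 ug/mL or serial dilutions from 100 ug/mL. Bound antibody detected with PE-labelled anti-human IgG F(ab′)2 by flow cytometry; EC50 taken as concentration giving half-maximal response.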

[3] = biological target: T1, ABCG2; assay: Flow cytometry binding to 293T cells overexpressing human ABCG2 (293T_ABCG2_OX); design: key to Binding by FACS: binding=“+”; non-significant binding=“−”; conditions: for binding to 293 cells overexpressing human ABCG2 (hG2): FACS, FIG. 1; for binding to 293T cells overexpressing human ABCG2: in words, FIGS. 7-11, 21
Method in brief: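 Antibodies serially diluted (from 100 ug/mL or about 666 nM) and incubated 30 min on ice with 293T cells stably expressing human or cynomolgus ABCG2, in PBS/2% FBS/0.02% azide. Bound antibody detected by PE anti-human IgG F(ab′)2, 20 min on ice, flow cytometry; EC50 = concentration giving half-maximal signal.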

[4] = test system: 293T_ABCG2_OX cells; type: cell-based, human; conditions: for Killing: cell killing by topotecan on 293T_ABCG2_OX cells, viability relative to IgG control
Procedure: Cytotoxicity Assays. The effect of antibodies on topotecan cytotoxicity was evaluated on 293T_ABCG2_OX cells, 293T cells stably transfected to express ABCG2. Cells were plated in 0.05 mL of Assay Media (DMEM+10% FBS) at 5000 cells/well in white, flat bottom 96-well tissue culture plates. Topotecan was prepared at 2× final assay concentration by serial dilution from 200 uM in assay media containing test antibodies or control antibodies at 100 ug/mL (2× final concentration), or Fumitremorgin C, a small molecule ABCG2 inhibitor at 20 uM (2× final concentration). An equivalent volume (0.05 mL) of the topotecan/antibody mixture was added to the 293T_ABCG2_OX cells in 96-well plates. The plates were then incubated at 37° C., in 5% CO2. After 72-96 hr plates were equilibrated to room temperature and cell viability assessed using Promega® CellTiter-Glo® Luminescent Cell Viability Assay according to the manufacturer's recommended protocol. Luminescence was measured on a Molecular Devices® FlexStation® 3 Multi-Mode Microplate Reader and data analyzed using GraphPad Prism 8.0 software. Half maximal inhibitory concentration (1050) is the concentration of drug (topotecan or other chemotherapy cytotoxic agent) where the response (cell growth) is reduced by 50%.

[5] = test system: HEK 293 naïve cells; assay: FACS binding to HEK 293 naïve cells; design: species or system human; conditions: FIG. 1
[6] = test system: Panc1/T300 cells; assay: Xenograft study with topotecan-resistant Panc1/T300 cells; type: in vivo
Procedure: PANC1 (ATCC, CRL-1469) is a pancreatic ductal epithelial carcinoma cell line. The topotectan-resistant Panc1/T300 cells were developed by continuously incubating PANC1 cells in the culture medium containing increasing concentration of topotecan of 25, 50, 100, 200 and 300 nM. […] The arrows indicate the dosing schedule.

[7] = test system: A549 (ATCC, CCL-185); assay: Xenograft study with NSCLC cell line A549; type: in vivo

Molecule	Block Efflux [1]	Cynomolgus ABCG2 binding [2]	binding to 293 cells overexpressing cynomolgus ABCG2 (cG2) [2]	Binding by FACS ([3]; 293T_ABCG2_OX cells)	binding to 293 cells overexpressing human ABCG2 (hG2) [3]	Killing [4]	binding to 293 naïve cells [5]	binding to 293T cells overexpressing cynomolgus ABCG2 [2]	binding to 293T cells overexpressing human ABCG2 [3]	tumor volume, in combination with topotecan [6]	efflux inhibition activity [1]	tumor volume, in combination with topotecan [7]	effect on topotecan cytotoxicity on 293T_ABCG2_OX cells [4]	efficacy in combination with CPT11 (Irinotecan) ([7]; compared with 5D3/CPT11 combination)	Kd ([3]; 293T_ABCG2_OX cells, read-out: Affinity for human ABCG2)
B1	−	−	does not significantly bind	+	binds	− (≥75% of IgG control)	does not significantly bind								
B2	−	+	binds	+	binds	− (≥75% of IgG control)	does not significantly bind								
B3	++			+		+++ (viability <10% of IgG control)		strong binding	strong binding	efficacious in reducing tumor volume					
B4	+			+		++ (viability ≥10% and <30% of IgG control)		strong binding	strong binding		strong efflux inhibition activity	efficacious in reducing tumor volume	significantly increased the cytotoxic activity of topotecan		
B5	+	+		+		+ (viability ≥30% and <50% of IgG control)					strong efflux inhibition activity			significantly exceeds the efficacy of the 5D3/CPT11 combination	33 nM
B6	+	+		+						efficacious in reducing tumor volume		efficacious in reducing tumor volume; also recorded: particularly efficacious			
